Test results published in PMC4430316, “Differential Phosphorylation of RNA Polymerase III and the Initiation Factor TFIIIB in Saccharomyces cerevisiae” (PLoS ONE, 2015).
Each block holds one binder with its values, some of them ahead of it.

Biological target: T1, Rpc160-HA (S. cerevisiae, UniProt P04051 1-1460)
T1 construct: Rpc160 (C160), largest subunit of RNA polymerase III, S. cerevisiae; Precipitated from cell extract, so other pol III subunits are probably present with it; also called C160-3HA; largest subunit of pol III; not shown: 3HA, C-terminal, kept
T1 sequence (looked up): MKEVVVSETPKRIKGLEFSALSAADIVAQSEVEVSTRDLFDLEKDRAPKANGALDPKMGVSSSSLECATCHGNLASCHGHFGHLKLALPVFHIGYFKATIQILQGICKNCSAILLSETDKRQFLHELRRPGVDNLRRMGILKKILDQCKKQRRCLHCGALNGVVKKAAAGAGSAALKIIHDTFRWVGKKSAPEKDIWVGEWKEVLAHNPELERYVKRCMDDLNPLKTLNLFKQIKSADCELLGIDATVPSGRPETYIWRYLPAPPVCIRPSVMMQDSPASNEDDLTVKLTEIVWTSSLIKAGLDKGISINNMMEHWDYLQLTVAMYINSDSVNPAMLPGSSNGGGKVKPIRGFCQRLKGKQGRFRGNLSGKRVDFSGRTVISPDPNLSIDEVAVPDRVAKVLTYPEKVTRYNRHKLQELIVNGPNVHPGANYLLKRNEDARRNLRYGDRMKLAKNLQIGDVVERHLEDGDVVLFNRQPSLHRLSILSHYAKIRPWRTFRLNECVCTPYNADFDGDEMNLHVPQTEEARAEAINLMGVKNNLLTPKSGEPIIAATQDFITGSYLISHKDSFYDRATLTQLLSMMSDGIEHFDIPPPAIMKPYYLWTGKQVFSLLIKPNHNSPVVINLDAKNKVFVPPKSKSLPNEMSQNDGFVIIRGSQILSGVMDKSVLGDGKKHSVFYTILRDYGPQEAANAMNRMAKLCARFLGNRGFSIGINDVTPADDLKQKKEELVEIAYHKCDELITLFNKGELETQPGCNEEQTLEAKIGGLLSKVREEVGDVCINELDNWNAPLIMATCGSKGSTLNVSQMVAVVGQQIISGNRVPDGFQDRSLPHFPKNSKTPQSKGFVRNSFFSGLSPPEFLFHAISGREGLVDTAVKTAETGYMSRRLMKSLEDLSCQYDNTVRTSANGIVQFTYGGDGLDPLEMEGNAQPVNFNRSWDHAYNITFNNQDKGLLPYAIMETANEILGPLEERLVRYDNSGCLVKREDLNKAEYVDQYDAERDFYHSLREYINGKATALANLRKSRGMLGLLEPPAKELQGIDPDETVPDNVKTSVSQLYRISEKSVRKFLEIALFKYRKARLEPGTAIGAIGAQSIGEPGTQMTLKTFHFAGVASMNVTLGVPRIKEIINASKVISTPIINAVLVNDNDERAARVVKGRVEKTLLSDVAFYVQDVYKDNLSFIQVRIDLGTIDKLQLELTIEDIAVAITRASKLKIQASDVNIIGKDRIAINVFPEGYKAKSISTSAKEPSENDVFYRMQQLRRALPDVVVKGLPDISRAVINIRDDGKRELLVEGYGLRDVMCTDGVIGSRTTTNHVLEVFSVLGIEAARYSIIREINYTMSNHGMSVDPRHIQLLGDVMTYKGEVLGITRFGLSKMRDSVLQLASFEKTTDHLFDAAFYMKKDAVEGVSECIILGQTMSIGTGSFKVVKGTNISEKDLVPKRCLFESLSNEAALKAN
Test: co-IP; Rpc160-HA precipitated with HA monoclonal antibody 12CA5 and protein G-Sepharose from yeast extracts (glass bead breakage, KBC100 buffer with protease and phosphatase inhibitors); Maf1 detected with polyclonal Maf1 antibody, Maf1myc with anti-myc; cells treated with rapamycin or untreated; also in BDP1 wild-type and BDP1-4SA strains (S4 Fig)
Conditions: partners not purified

fold increase of Maf1 co-immunoprecipitated with Rpc160 in rapamycin-treated against untreated cells: ~13 fold
B1: Maf1 (natural protein, S. cerevisiae, UniProt P41910 1-395, looked up)
chain: MKFIDELDIERVNQTLNFETNDCKIVGSCDIFTTKAVASDRKLYKTIDQHLDTILQENENYNATLQQQLAAPETNQSPCSSPFYSNRRDSNSFWEQKRRISFSEYNSNNNTNNSNGNSSNNNNYSGPNGSSPATFPKSAKLNDQNLKELVSNYDSGSMSSSSLDSSSKNDERIRRRSSSSISSFKSGKSSNNNYSSGTATNNVNKRRKSSINERPSNLSLGPFGPINEPSSRKIFAYLIAILNASYPDHDFSSVEPTDFVKTSLKTFISKFENTLYSLGRQPEEWVWEVINSHMTLSDCVLFQYSPSNSFLEDEPGYLWNLIGFLYNRKRKRVAYLYLICSRLNSSTGEVEDALAKKPQGKLIIDDGSNEYEGEYDFTYDENVIDDKSDQEESLQ
notes: Maf1, repressor of RNA polymerase III transcription, S. cerevisiae; untagged, detected with a polyclonal Maf1 antibody; Phosphorylation state differs between control and rapamycin-treated cells; also called untagged Maf1; source: endogenous, yeast cell extract

fold increase of Maf1myc co-immunoprecipitated with Rpc160 in rapamycin-treated against untreated cells: < 2 fold
B2: Maf1myc (natural protein, S. cerevisiae, UniProt P41910 1-395, looked up)
chain: B1 chain
notes: Maf1, repressor of RNA polymerase III transcription, S. cerevisiae; also called Maf1-9myc; C-terminal myc-tagged Maf1
